Measured values published in PMC12583694, “RNF114 and RNF166 exemplify reader-writer E3 ligases that extend K11 polyubiquitin onto sites of MARUbylation” (The EMBO Journal, 2025).
Where a chain is given by its changes, count along the chain named. Numbers in names are those of the source.

B1: RNF114 (wild type, full-length) (enzyme, human, UniProt Q9Y508 1-228, looked up)
chain: MAAQQRDCGGAAQLAGPAAEADPLGRFTCPVCLEVYEKPVQVPCGHVFCSACLQECLKPKKPVCGVCRSALAPGVRAVELERQIESTETSCHGCRKNFFLSKIRSHVATCSKYQNYIMEGVKATIKDASLQPRNVPNRYTFPCPYCPEKNFDQEGLVEHCKLFHSTDTKSVVCPICASMPWGDPNYRSANFREHIQRRHRFSYDTFVDYDVDEEDMMNQVLQRSIIDQ
notes: RNF114, human, RING-type E3 ubiquitin ligase; synthesised DNA cloned into pOPIN-B (N-terminal His-3C fusion); The methods describe no cleavage of the His-3C tag; also called WT RNF114; source: E. coli Rosetta, purified (Cobalt resin, gel filtration)
B2: RNF114 F206E (enzyme, human, UniProt Q9Y508 1-228, looked up)
chain: B1 chain with F206E
notes: RNF114, human, with a mutation in the linker between Di19 and UIM (modelled contact with the Ub I36 patch); Made by site-directed mutagenesis of pOPINB-RNF114 WT; no tag cleavage described; source: E. coli Rosetta, purified (Cobalt resin, gel filtration)
B3: RNF114 R198E (enzyme, human, UniProt Q9Y508 1-228, looked up)
chain: B1 chain with R198E
notes: Made by site-directed mutagenesis of pOPINB-RNF114 WT; no tag cleavage described; source: E. coli Rosetta, purified (Cobalt resin, gel filtration)
B4: RNF114 M-UBD construct (residues 137–228) (domain or fragment)
chain: not shown
notes: RNF114, human, residues 137-228 (RING domain and associated disordered regions removed); No tag cleavage described; also called tandem Di19-UIM module; source: E. coli Rosetta, purified (Cobalt resin, gel filtration)
B5: AF1521 macrodomain (natural protein, UniProt O28751 1-192, looked up)
chain: MEVLFEAKVGDITLKLAQGDITQYPAKAIVNAANKRLEHGGGVAYAIAKACAGDAGLYTEISKKAMREQFGRDYIDHGEVVVTPAMNLEERGIKYVFHTVGPICSGMWSEELKEKLYKAFLGPLEKAEEMGVESIAFPAVSAGIYGCDLEKVVETFLEAVKNFKGSAVKEVALVIYDRKSAEVALKVFERSL
notes: plasmid GST-AF1521 (gift from M. Nielsen); also called GST-AF1521; source: purified as previously reported (Kamata et al, 2019)
B6: RNF114 ΔUIM^ext (domain or fragment, human, UniProt Q9Y508 1-200, looked up)
chain: MAAQQRDCGGAAQLAGPAAEADPLGRFTCPVCLEVYEKPVQVPCGHVFCSACLQECLKPKKPVCGVCRSALAPGVRAVELERQIESTETSCHGCRKNFFLSKIRSHVATCSKYQNYIMEGVKATIKDASLQPRNVPNRYTFPCPYCPEKNFDQEGLVEHCKLFHSTDTKSVVCPICASMPWGDPNYRSANFREHIQRRHR
notes: RNF114, human, truncated version that ends immediately after the Di19 domain at residue 200; No tag cleavage described; source: E. coli Rosetta, purified (Cobalt resin, gel filtration)
B7: RNF138 (enzyme, human, UniProt Q8WVD3 1-245, looked up)
chain: MAEDLSAATSYTEDDFYCPVCQEVLKTPVRTTACQHVFCRKCFLTAMRESGAHCPLCRGNVTRRERACPERALDLENIMRKFSGSCRCCAKQIKFYRMRHHYKSCKKYQDEYGVSSIIPNFQISQDSVGNSNRSETSTSDNTETYQENTSSSGHPTFKCPLCQESNFTRQRLLDHCNSNHLFQIVPVTCPICVSLPWGDPSQITRNFVSHLNQRHQFDYGEFVNLQLDEETQYQTAVEESFQVNI
notes: RNF138, human, RING-type E3 ubiquitin ligase; synthesised DNA cloned into pOPIN-S3C (N-terminal His-SUMO-3C fusion); No tag cleavage described; source: E. coli Rosetta, purified (Cobalt resin, gel filtration; buffers at pH 8.0)
B8: RNF166 (enzyme, human, UniProt Q96A37 1-237, looked up)
chain: MAMFRSLVASAQQRQPPAGPAGGDSGLEAQYTCPICLEVYHRPVAIGSCGHTFCGECLQPCLQVPSPLCPLCRLPFDPKKVDKATHVEKQLSSYKAPCRGCNKKVTLAKMRVHISSCLKVQEQMANCPKFVPVVPTSQPIPSNIPNRSTFACPYCGARNLDQQELVKHCVESHRSDPNRVVCPICSAMPWGDPSYKSANFLQHLLHRHKFSYDTFVDYSIDEEAAFQAALALSLSEN
notes: RNF166, human, RING-type E3 ubiquitin ligase; synthesised DNA cloned into pOPIN-B (N-terminal His-3C fusion); No tag cleavage described; source: E. coli Rosetta, purified (Cobalt resin, gel filtration)

These binders were tested against T1, Ub-Lys-TAMRA (UniProt P0CG47 1-76, Ub is isopeptide-linked to a TAMRA-labeled Lys-Gly dipeptide (at the Ub C-terminus)) (assay: fluorescence polarisation; TAMRA-labelled substrate fixed, unlabelled protein at a range of concentrations, mixed 1:1; 22 °C; 25 mM HEPES pH 7.4, 150 mM NaCl, 0.1 mg/mL BSA, 1 mM TCEP; 10 µL in 384-well plate; Kd by nonlinear regression of duplicate datasets (GraphPad Prism 10)). Settings: both partners purified.
T1 construct: ubiquitin (the cut product of the polyubiquitin precursor); source: generated previously (Geurink et al, 2012)
B1 gave a Kd of ~20 µM.
B2: binds.
B3: binds.
B4: binds.
B5: binds.

The binders below were run against T2, Ub-ADPr-TAMRA (fluorescent ester-linked Ub-ADPr conjugate) (human, UniProt P0CG47 1-76, C-terminus ester-linked to ADP-ribose (OP-ADPr, compound 8) that carries TAMRA (CuAAC with TAMRA-azide)) in the same assay as above. Settings: both partners purified.
T2 construct: ubiquitin, human (pET17b-Ub), wild type; observed mass of Ub 8564.4 Da; also called MARUbe probe; source: Ub purified as previously reported (Warren et al, 2023); coupled to OP-ADPr with DTX2, purified (Resource S), clicked to TAMRA-azide, purified (size exclusion)
B6: binds.
Work on B1 yielded a Kd of 12.8 µM.
B2: binds.
B3: binds.
B7: binds.
B8: binds.
B5: binds.
